Source: patent US20180155451A1 (published 2018)

B1: GpH7-A5/GpH7-HA5/GpL16-k0 (antibody, human IgG1, kappa)
heavy 1: not shown
heavy 2: QVQLVQSGAEVKKPGASVTVSCKASGYTFTDYEMHWIRQPPGEGLEWIGAIDPKTGDTAYSESFQDRVTLTADKSTSTAYMELSSLTSEDTAVYYCTRFYSYTYWGQGTLVTVSSASTKGPSVFPLAPSSKSTSGGTAALGCLVKDYFPEPVTVSWNSGALTSGVHTFPAVLQSSGLYSLSSVVTVPSSSLGTQTYICNVNHKPSNTKVDKKVEPKSCDKTHTCPPCPAPEYLGGPSVFLFPPKPKDTLMISRTPEVTCVVVDVSHEDPEVKFNWYVDGVEVHNAKTKPREEQYNSTYRVVSVLTVLHQDWLNGKEYKCKVSNKALRAPIEKTISKAKGQPREPQVYTLPPSRDELTKNQVSLTCLVKGFYPSDIAVEWESNGQPENNYKTTPPVLDSDGSFFLYSKLTVDKSRWQQGNVFSCSVMHEALHNHYTQESLSLSP
light: DIVMTQSPLSLPVTPGEPASISCQASESLVHSNRNTYLHWYLQKPGQSPQLLIYKVSNRFSGVPDRFSGSGSGTDFTLKISRVEAEDVGVYYCSQNTHVPPTFGQGTKVEIERTVAAPSVFIFPPSDEQLKSGTASVVCLLNNFYPREAKVQWKVDNALQSGNSQESVTEQDSKDSTYSLSSTLTLSKADYEKHKVYACEVTHQGLSSPVTKSFNRGEC
notes: H2 L234Y and P329R
B2: GpH7-A48/GpH7-B3-01-15Y/GpL16-k0 (antibody, human IgG1, kappa)
heavy 1: QVQLVQSGAEVKKPGASVTVSCKASGYTFTDYEMHWIRQPPGEGLEWIGAIDPKTGDTAYSESFQDRVTLTADKSTSTAYMELSSLTSEDTAVYYCTRFYSYTYWGQGTLVTVSSASTKGPSVFPLAPSSKSTSGGTAALGCLVKDYFPEPVTVSWNSGALTSGVHTFPAVLQSSGLYSLSSVVTVPSSSLGTQTYICNVNHKPSNTKVDKKVEPKSCDKTHTCPPCPAPELLGGPSVFLFPPKPKDTLMISRTPEVTCVVVDVSHEDPEVKFNWYVDGVEVHNAKTKPREEQYNSTYRVVSVLTVLHQDWLNGKEYKCKVSNKALRAPIEKTISKAKGQPREPQVYTLPPSRKELTKNQVSLTCLVKGFYPSDIAVEWESNGQPENNYKTTPPVLDSDGSFFLYSKLTVDKSRWQQGNVFSCSVMHEALHNRYTQKSLSLSP
heavy 2: not shown
light: DIVMTQSPLSLPVTPGEPASISCQASESLVHSNRNTYLHWYLQKPGQSPQLLIYKVSNRFSGVPDRFSGSGSGTDFTLKISRVEAEDVGVYYCSQNTHVPPTFGQGTKVEIERTVAAPSVFIFPPSDEQLKSGTASVVCLLNNFYPREAKVQWKVDNALQSGNSQESVTEQDSKDSTYSLSSTLTLSKADYEKHKVYACEVTHQGLSSPVTKSFNRGEC
notes: H1 P329R; H2 L234Y
B3: GpH7-A48/GpH7-B3-03-20W/GpL16-k0 (antibody, human IgG1, kappa)
heavy 1: QVQLVQSGAEVKKPGASVTVSCKASGYTFTDYEMHWIRQPPGEGLEWIGAIDPKTGDTAYSESFQDRVTLTADKSTSTAYMELSSLTSEDTAVYYCTRFYSYTYWGQGTLVTVSSASTKGPSVFPLAPSSKSTSGGTAALGCLVKDYFPEPVTVSWNSGALTSGVHTFPAVLQSSGLYSLSSVVTVPSSSLGTQTYICNVNHKPSNTKVDKKVEPKSCDKTHTCPPCPAPELLGGPSVFLFPPKPKDTLMISRTPEVTCVVVDVSHEDPEVKFNWYVDGVEVHNAKTKPREEQYNSTYRVVSVLTVLHQDWLNGKEYKCKVSNKALRAPIEKTISKAKGQPREPQVYTLPPSRKELTKNQVSLTCLVKGFYPSDIAVEWESNGQPENNYKTTPPVLDSDGSFFLYSKLTVDKSRWQQGNVFSCSVMHEALHNRYTQKSLSLSP
heavy 2: not shown
light: DIVMTQSPLSLPVTPGEPASISCQASESLVHSNRNTYLHWYLQKPGQSPQLLIYKVSNRFSGVPDRFSGSGSGTDFTLKISRVEAEDVGVYYCSQNTHVPPTFGQGTKVEIERTVAAPSVFIFPPSDEQLKSGTASVVCLLNNFYPREAKVQWKVDNALQSGNSQESVTEQDSKDSTYSLSSTLTLSKADYEKHKVYACEVTHQGLSSPVTKSFNRGEC
notes: H1 P329R; H2 G236W
B4: GpH7-A5/GpH7-HA11/GpL16-k0 (antibody, human IgG1, kappa)
heavy 1: not shown
heavy 2: QVQLVQSGAEVKKPGASVTVSCKASGYTFTDYEMHWIRQPPGEGLEWIGAIDPKTGDTAYSESFQDRVTLTADKSTSTAYMELSSLTSEDTAVYYCTRFYSYTYWGQGTLVTVSSASTKGPSVFPLAPSSKSTSGGTAALGCLVKDYFPEPVTVSWNSGALTSGVHTFPAVLQSSGLYSLSSVVTVPSSSLGTQTYICNVNHKPSNTKVDKKVEPKSCDKTHTCPPCPAPELLGGPSVFLFPPKPKDTLMISRTPEVTCVVVDVSHEDPEVKFNWYVDGVEVHNAKTKPREEQYNATYRVVSVLTVLHQDWLNGKEYKCKVSNKALRAPIEKTISKAKGQPREPQVYTLPPSRDELTKNQVSLTCLVKGFYPSDIAVEWESNGQPENNYKTTPPVLDSDGSFFLYSKLTVDKSRWQQGNVFSCSVMHEALHNHYTQESLSLSP
light: DIVMTQSPLSLPVTPGEPASISCQASESLVHSNRNTYLHWYLQKPGQSPQLLIYKVSNRFSGVPDRFSGSGSGTDFTLKISRVEAEDVGVYYCSQNTHVPPTFGQGTKVEIERTVAAPSVFIFPPSDEQLKSGTASVVCLLNNFYPREAKVQWKVDNALQSGNSQESVTEQDSKDSTYSLSSTLTLSKADYEKHKVYACEVTHQGLSSPVTKSFNRGEC
notes: H2 S298A and P329R
B5: GpH7-A5/GpH7-HA6/GpL16-k0 (antibody, human IgG1, kappa)
heavy 1: not shown
heavy 2: QVQLVQSGAEVKKPGASVTVSCKASGYTFTDYEMHWIRQPPGEGLEWIGAIDPKTGDTAYSESFQDRVTLTADKSTSTAYMELSSLTSEDTAVYYCTRFYSYTYWGQGTLVTVSSASTKGPSVFPLAPSSKSTSGGTAALGCLVKDYFPEPVTVSWNSGALTSGVHTFPAVLQSSGLYSLSSVVTVPSSSLGTQTYICNVNHKPSNTKVDKKVEPKSCDKTHTCPPCPAPELLWGPSVFLFPPKPKDTLMISRTPEVTCVVVDVSHEDPEVKFNWYVDGVEVHNAKTKPREEQYNSTYRVVSVLTVLHQDWLNGKEYKCKVSNKALRAPIEKTISKAKGQPREPQVYTLPPSRDELTKNQVSLTCLVKGFYPSDIAVEWESNGQPENNYKTTPPVLDSDGSFFLYSKLTVDKSRWQQGNVFSCSVMHEALHNHYTQESLSLSP
light: DIVMTQSPLSLPVTPGEPASISCQASESLVHSNRNTYLHWYLQKPGQSPQLLIYKVSNRFSGVPDRFSGSGSGTDFTLKISRVEAEDVGVYYCSQNTHVPPTFGQGTKVEIERTVAAPSVFIFPPSDEQLKSGTASVVCLLNNFYPREAKVQWKVDNALQSGNSQESVTEQDSKDSTYSLSSTLTLSKADYEKHKVYACEVTHQGLSSPVTKSFNRGEC
notes: H2 G236W and P329R
B6: GpH7-A48/GpH7-B3-15-02A/GpL16-k0 (antibody, human IgG1, kappa)
heavy 1: QVQLVQSGAEVKKPGASVTVSCKASGYTFTDYEMHWIRQPPGEGLEWIGAIDPKTGDTAYSESFQDRVTLTADKSTSTAYMELSSLTSEDTAVYYCTRFYSYTYWGQGTLVTVSSASTKGPSVFPLAPSSKSTSGGTAALGCLVKDYFPEPVTVSWNSGALTSGVHTFPAVLQSSGLYSLSSVVTVPSSSLGTQTYICNVNHKPSNTKVDKKVEPKSCDKTHTCPPCPAPELLGGPSVFLFPPKPKDTLMISRTPEVTCVVVDVSHEDPEVKFNWYVDGVEVHNAKTKPREEQYNSTYRVVSVLTVLHQDWLNGKEYKCKVSNKALRAPIEKTISKAKGQPREPQVYTLPPSRKELTKNQVSLTCLVKGFYPSDIAVEWESNGQPENNYKTTPPVLDSDGSFFLYSKLTVDKSRWQQGNVFSCSVMHEALHNRYTQKSLSLSP
heavy 2: not shown
light: DIVMTQSPLSLPVTPGEPASISCQASESLVHSNRNTYLHWYLQKPGQSPQLLIYKVSNRFSGVPDRFSGSGSGTDFTLKISRVEAEDVGVYYCSQNTHVPPTFGQGTKVEIERTVAAPSVFIFPPSDEQLKSGTASVVCLLNNFYPREAKVQWKVDNALQSGNSQESVTEQDSKDSTYSLSSTLTLSKADYEKHKVYACEVTHQGLSSPVTKSFNRGEC
notes: H1 P329R; H2 S298A

These binders were tested against T1, FcγRIIIa extracellular domain with C-terminal His tag (human, UniProt P08637 17-208) (assay: SPR relative binding; GpH7-A5/GpH7-B3/GpL16-k0 = 100).
T1 construct: extracellular domain; also called FcgRIIIa; 3a; not shown: His tag at the C terminus
T1 sequence (P08637 17-208): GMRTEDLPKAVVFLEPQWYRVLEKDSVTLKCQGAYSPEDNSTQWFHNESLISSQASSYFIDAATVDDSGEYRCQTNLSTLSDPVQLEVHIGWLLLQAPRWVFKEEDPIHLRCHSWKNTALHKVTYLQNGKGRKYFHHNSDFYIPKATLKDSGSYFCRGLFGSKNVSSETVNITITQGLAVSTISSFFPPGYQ
Description: First, variants of interest were expressed and prepared according to the method described in Reference Example 1, using GpH7-A5 as an H chain; and GpL16-k0 as the L chain; and as the other H chain, GpH7-HA5 (SEQ ID NO: 19), GpH7-HA6 (SEQ ID NO: 20), and GpH7-HA11 (SEQ ID NO: 21) resulting from the introduction of L234Y, G236W, and S298A, respectively, into GpH7-B12 introduced with the alteration P329R. Furthermore, antibodies of interest were expressed and prepared according to the method described in Reference Example 1, using as an H chain, GpH7-A48 (SEQ ID NO: 16) resulting from the introduction of P329R into GpH7-A5; and GpL16-k0 as the L chain; and as the other H chain, GpH7-B3-01-15Y (SEQ ID NO: 22), GpH7-B3-03-20W (SEQ ID NO: 23), and GpH7-B3-15-02A (SEQ ID NO: 24) resulting from the introduction of L234Y, G236W, and S298A, respectively, into GpH7-B3. The antibodies thus obtained were named GpH7-A5/GpH7-HA5/GpL16-k0 (SEQ ID NOs: 3, 19, and 5, respectively), GpH7-A5/GpH7-HA6/GpL16-k0 (SEQ ID NOs: 3, 20, and 5, respectively), GpH7-A5/GpH7-HA11/GpL16-k0 (SEQ ID NOs: 3, 21, and 5, respectively), GpH7-A48/GpH7-B3-01-15Y/GpL16-k0 (SEQ ID NOs: 16, 22, and 5, respectively), GpH7-A48/GpH7-B3-03-20W/GpL16-k0 (SEQ ID NOs: 16, 23, and 5, respectively), and GpH7-A48/GpH7-B3-15-02A/GpL16-k0 (SEQ ID NO: 16, 24, and 5, respectively). The variants were compared to each other for the FcγRIIIa-binding activity according to the method described in Reference Example 2.
Analysis of interaction between objective antibody and the FcγR was carried out using Biacore T100 (GE Healthcare). HBS-EP+ (GE Healthcare) was used as the running buffer, and the measurement temperature was set to 25° C. Chips produced by immobilizing the antigen peptide by the amine coupling method to a Series S Sencor Chip CM5 (GE Healthcare), or alternatively, chips produced by allowing preliminarily biotinylated antigen peptides to interact with and immobilize onto a Series S Sensor Chip SA (certified) (GE Healthcare) were used. Antibodies of interest were captured onto an antigen peptide-immobilized chip, and allowed to interact to each FcγR diluted with running buffer. To regenerate and repeatedly use the chip, the antibodies captured on the chip were washed off by reacting 10 mM glycine-HCl, pH 1.5.
With B1 the “FcγRIIIa BINDING ACTIVITY” value was 60 % of control.
In the case of B2, the “FcγRIIIa BINDING ACTIVITY” value is reported as 11 % of control.
In the case of B3, the “FcγRIIIa BINDING ACTIVITY” value is reported as 13 % of control.
B4 was tested, and the “FcγRIIIa BINDING ACTIVITY” value was 84 % of control.
For B5, the “FcγRIIIa BINDING ACTIVITY” value was 56 % of control.
For B6, the “FcγRIIIa BINDING ACTIVITY” value was 47 % of control.
